Test results: patent US20080280313

Assays:
[1] = tested on: kemptide LRRASLG (Promega)
[2] = tested on: CKI substrate DDDEESITRR (Promega)
[3] = tested on: CKII substrate RRREEETEEE (New England Biolabs)
[4] = molecular target: partially dephosphorylated α-casein (Sigma) (UniProt P02662)
[5] = tested on: CKI phosphopeptide substrate KRRRALS(p)VASLPGL (New England Biolabs)
[6] = molecular target: β-casein (Sigma) (UniProt P02666)
[7] = tested on: CKII substrate RRADDSDDDDD (Calbiochem)
[8] = tested on: CaM kinase II substrate (281-291) MHKNETVECLK (Calbiochem)
[9] = tested on: Syntide-2 substrate PLARTLSVAGLPGKK (Calbiochem)

Chain of β-casein (Sigma) (P02666 16-224): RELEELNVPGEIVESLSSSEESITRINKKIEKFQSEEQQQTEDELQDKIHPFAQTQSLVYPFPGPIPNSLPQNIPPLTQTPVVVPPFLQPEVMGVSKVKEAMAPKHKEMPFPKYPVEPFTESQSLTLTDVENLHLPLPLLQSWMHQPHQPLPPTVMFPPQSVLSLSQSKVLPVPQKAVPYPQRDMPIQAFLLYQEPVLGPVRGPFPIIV
Chain of partially dephosphorylated α-casein (Sigma) (P02662 16-214): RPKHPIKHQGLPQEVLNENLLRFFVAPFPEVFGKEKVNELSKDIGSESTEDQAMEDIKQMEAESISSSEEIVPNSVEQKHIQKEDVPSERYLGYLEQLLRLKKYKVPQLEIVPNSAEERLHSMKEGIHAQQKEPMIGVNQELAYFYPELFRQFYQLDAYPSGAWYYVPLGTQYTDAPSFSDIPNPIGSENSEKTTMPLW

Row | Substance | kinase activity with peptide substrate [1] | kinase activity with peptide substrate [2] | kinase activity with peptide substrate [3] | Km(app) [4] [µM] | Vmax(app) (nmole min^-1 mg^-1) [4] | Km(app) [5] [µM] | Vmax(app) (nmole min^-1 mg^-1) [5] | Km(app) [6] [µM] | Vmax(app) (nmole min^-1 mg^-1) [6] | kinase activity with peptide substrate [7] | kinase activity with peptide substrate [8] | kinase activity with peptide substrate [9]
1 | FLAGTgCKIα, N-terminal FLAG epitope tagged Toxoplasma gondii casein kinase I alpha | failed to show concentration dependent kinase activity | failed to show concentration dependent kinase activity | failed to show concentration dependent kinase activity | 4 | 8 | 80 | 26 | 30 | 8 | failed to show concentration dependent kinase activity | failed to show concentration dependent kinase activity | failed to show concentration dependent kinase activity
2 | native TgCKIα, partially purified from Toxoplasma gondii tachyzoites | failed to show concentration dependent kinase activity | failed to show concentration dependent kinase activity | failed to show concentration dependent kinase activity | 3 |  | 20 |  | 13 |  | failed to show concentration dependent kinase activity | failed to show concentration dependent kinase activity | failed to show concentration dependent kinase activity
